Results published in patent US20120094909A1 (Bristol-Myers Squibb, published 2012).
Read-outs that look alike come from different tables or passages of the source. Blank lines part the entries; values can stand above or below the binder they belong to.

Tests used:
human serum albumin = target: T1, human serum albumin (human, UniProt P02768 25-609); test: SPR (Biacore), albumin captured on chip, SABA in flow
T1 construct: also called HSA
Procedure: (§1) The kinetics of selected SABA clones purified from HTPP and/or midscaled material described in Examples 5A and 5B were determined by capturing the respective serum albumin (HSA/RhSA/MuSA) on the surface of a Biasensor CMS chip and flowing a concentration series of SABAs over both the reference flow cell and the captured albumins. In addition, binding to albumin was carried out under various pH conditions ranging from pH 5.5 to pH 7.4.

rhesus serum albumin = target: T2, rhesus serum albumin (rhesus, UniProt Q28522 17-600); test: as above
T2 construct: also called RhSA
Procedure: as §1

murine serum albumin = target: T3, murine serum albumin (mouse, UniProt P07724 25-608); test: SPR, captured albumin
T3 construct: also called MuSA; mouse serum albumin
Procedure: as §1

[1] = target: T4, human PCSK9 (proprotein convertase subtilisin kexin type 9) (human, UniProt Q8NBP7 31-692); test: ITC, 37 C
T4 construct: immobilized directly (ProteOn), biotinylated (Octet) or in solution, according to the assay; also called hPCSK9; PCSK9-AF647 (labelled form)

[2] = target: T4, human PCSK9 (proprotein convertase …); test: cell-based or functional assay
[3] = target: T4, human PCSK9 (proprotein convertase …); test: cell-based or functional assay; remark: listed apart in the source
[4] = target: T4, human PCSK9 (proprotein convertase …); test: PCSK9:EGFA FRET, competitor EGFA peptide
[5] = target: T4, human PCSK9 (proprotein convertase …); test: SPR (ProteOn), 25 C
[6] = target: T4, human PCSK9 (proprotein convertase …); test: BLI (Octet Red), 37 C
Procedure: (§2) Tips were then immersed into a buffer-only well for observation of Adnectin dissociation. Experiments were performed in a temperature controlled environment at either 25 or 37° C., and the oscillation speed was set at 1500 rpm.
(§3) Binding interaction analysis was performed using proprietary software from Fortebio (Fortebio Data Analysis Software version 6.3.0.36). Global fits were performed for all samples, using a 1:1 binding model. The nature of these global fits constrained all values of concentration to a single pair of association and dissociation rates that were themselves constrained to each other. Affinities (KD), association and dissociation rates were averaged over the various loading levels used in the analysis.

Cynomolgus PCSK9 = target: T5, Cynomolgus PCSK9 (cynomolgus monkey, UniProt A0A7N9D9N8 150-747); test: SPR (ProteOn), PCSK9 immobilized directly, 25 C
T5 construct: also called cyno PCSK9; cPCSK9
Procedure: (§4) The binding characteristics were characterized by Surface Plasmon Resonance (SPR). […] This allowed kinetic determination in the absence of regeneration. […] Evaluation of the kinetic parameters was performed using the Langmuir interaction model and constant parameter fitting with the ProteOn Manager software.

[7] = target: T4, human PCSK9 (proprotein convertase …); test: PCSK9:EGFA FRET at 5 nM PCSK9, competitor EGFA peptide
[8] = target: T4, human PCSK9 (proprotein convertase …); test: PCSK9:ATI-972 FRET at 5 nM human PCSK9, competitor biotinylated ATI-972
[9] = target: T6, human PCSK9 (proprotein convertase subtilisin kexin type 9) (human, UniProt Q8NBP7 31-692); test: SPR ProteOn, 25 C
T6 construct: Directly immobilized (SPR ProteOn), biotinylated (BLI), or in solution, depending on the assay; also called hPCSK9
Procedure: as §4

cynomolgus monkey PCSK9 [10] = target: T7, cynomolgus monkey PCSK9 (cynomolgus monkey, UniProt A0A7N9D9N8 150-747); test: SPR ProteOn, 25 C
Procedure: as §4

[11] = target: T6, human PCSK9 (proprotein convertase …); test: cell-based or functional assay; remark: listed apart in the source
[12] = target: T6, human PCSK9 (proprotein convertase …); test: FRET, competitor ATI000972
Text: (§5) Table 11 summarizes the overall data from these three FRET assays.

[13] = target: T6, human PCSK9 (proprotein convertase …); test: FRET, competitor EGFA peptide
Text: as §5

cynomolgus monkey PCSK9 [14] = target: T7, cynomolgus monkey PCSK9; test: FRET, competitor EGFA peptide
Text: as §5

[15] = target: T6, human PCSK9 (proprotein convertase …); test: SPR ProteOn, PCSK9 immobilized, 25 C
Procedure: as §4

cynomolgus monkey PCSK9 [16] = target: T7, cynomolgus monkey PCSK9; test: SPR ProteOn, PCSK9 immobilized, 25 C
Procedure: as §4

[17] = target: T6, human PCSK9 (proprotein convertase …); test: BLI, biotinylated hPCSK9 on sensor tips
[18] = target: T6, human PCSK9 (proprotein convertase …); test: FRET direct binding, anti-his6 antibody
Text: as §5

[19] = target: T6, human PCSK9 (proprotein convertase …); test: KinExA, solution phase
Procedure: Due to technical limitations, the lowest concentration of Adnectins that could be tested was 1 nM.

[20] = target: T6, human PCSK9 (proprotein convertase …); test: ITC, 37 C, average of 3 experiments
Procedure: Solution phase binding was measured in 25 mM HEPES, pH 7.41, 150 mM NaCl at 37° C.

[21] = target: T6, human PCSK9 (proprotein convertase …); test: BLI Octet Red, 37 C
Procedure: as §2, §3

cynomolgus monkey PCSK9 [22] = target: T8, cynomolgus monkey PCSK9 (cynomolgus monkey, UniProt A0A7N9D9N8 150-747); test: FRET, competitor EGFA peptide
T8 construct: also called cyno PCSK9; cPCSK9
Text: as §5

Kd (human serum albumin): 863 nM
koff (human serum albumin): 0.0682 s⁻¹
Kd (rhesus serum albumin): 431 nM
koff (rhesus serum albumin): 0.0337 s⁻¹
B1: SABA3.1 (designed binder)
chain: MGVSDVPRDLEVVAATPTSLLISWSNDGPGLSYYRITYGETGGNSPVQEFTVPSSQTTATISGLKPGVDYTITVYAVSYYTKKAYSAGPISINYRTEIDKPSQHHHHHH
notes: also called clone 1245H07

binding result (murine serum albumin): no binding
B2: SABA3.1 (designed binder)
chain: MGVSDVPRDLEVVAATPTSLLISWSNDGPGLSYYRITYGETGGNSPVQEFTVPSSQTTATISGLKPGVDYTITVYAVSYYTKKAYSAGPISINYRTEIDKPSQHHHHHH
notes: also called clone 1245H07

Kd [1]: 3.8 nM
DiI-LDL uptake in HepG2 cells, EC50 [2]: 210 nM
EC50 (nM), PCSK9-induced LDLR depletion from HepG2 cell surface [2]: 16 nM
percentage of PCSK9 inhibition at 75 nM [2]: 150%
LDLR Depletion (% inhibition at 75 nM) [3]: 150%
LDLR Depletion EC50 [3]: 26 nM
EC50 [4]: 2 nM
B3: 1784F03 (designed binder)
chain: MGVSDVPRDLEVVAATPTSLLISWRPPIHAYGYYRITYGETGGNSPVQEFTVPIVEGTATISGLKPGVDYTITVYAVEYTFKHSGYYHRPISINYRTEIDKPSQHHHHHH

DiI-LDL uptake in HepG2 cells, EC50 [2]: 130 nM
EC50 (nM), PCSK9-induced LDLR depletion from HepG2 cell surface [2]: 7.78 nM
percentage of PCSK9 inhibition at 75 nM [2]: 190%
Kd [5]: 0.25 nM
LDLR Depletion (% inhibition at 75 nM) [3]: 144%
LDLR Depletion EC50 [3]: 12 nM
EC50 [4]: 2.1 nM
Kd (Cynomolgus PCSK9): 24 nM
B6: 2012A04 (designed binder)
chain: MGVSDVPRDLEVVAATPTSLLISWRPPSNGHGYYRITYGETGGNSPVQEFTVPVNEGTATISGLKPGVDYTITVYAVEFPFKWSGYYHRPISINYRTEIDKPSQHHHHHH

Kd [9]: 0.09 nM
Kd (cynomolgus monkey PCSK9 [10]): 15 nM
LDLR Depletion EC50 [11]: 10 nM
IC50 [12]: 2 nM
EC50 [13]: 1.2 nM
IC50 [13]: 1.2 nM
EC50 (cynomolgus monkey PCSK9 [14]): 26.6 nM
Kd [15]: 0.094 nM
koff [15]: 5.08e-05 s⁻¹
kon [15]: 541000 M⁻¹ s⁻¹
Kd (cynomolgus monkey PCSK9 [16]): 15 nM
koff (cynomolgus monkey PCSK9 [16]): 0.007 s⁻¹
kon (cynomolgus monkey PCSK9 [16]): 465000 M⁻¹ s⁻¹
Kd [17]: 0.255 nM
koff [17]: 0.00014 s⁻¹
kon [17]: 532000 M⁻¹ s⁻¹
EC50 [18]: 2.5 nM
B7: 1922G04 (designed binder)
chain: MGVSDVPRDLEVVAATPTSLLISWRPPSHAYGYYRITYGETGGNSPVQEFTVPIGKGTATISGLKPGVDYTITVYAVEYPWKGSGYYHRPISINYRTEIDKPSQHHHHHH
notes: Anti-PCSK9 Adnectin, His6-tagged; also called ATI001057; ATI-1057

binding result (murine serum albumin): no binding
B8: SABA1.1 (designed binder)
chain: MGVSDVPRDLEVVAATPTSLLISWHSYYEQNSYYRITYGETGGNSPVQEFTVPYSQTTATISGLKPGVDYTITVYAVYGSKYYYPISINYRTEIDKPSQHHHHHH
notes: core 1 10Fn3 with His6; also called clone 1318H04

PCSK9-induced LDLR depletion in HepG2 cells, EC50 [2]: 8 nM
inhibition of PCSK9-AF647 intracellular fluorescence in HepG2 cells, EC50 [2]: 10 nM
EC50 [7]: 1.9 nM
B9: ATI001174 (designed binder)
chain: MGVSDVPRDLEVVAATPTSLLISWVPPSDDYGYYRITYGETGGNSPVQEFTVPIGKGTATISGLKPGVDYTITVYAVEFPWPHAGYYHRPISINYRTEIEKPCQ
modifications: PEG on the cysteine of the C-terminal tail (EIEKPCQ)
notes: also called ATI-1174; ATI1174

Kd [21]: 0.314 nM
EC50 [13]: 2.6 nM
EC50 (cynomolgus monkey PCSK9 [22]): 57.8 nM
Kd [17]: 0.314 nM
koff [17]: 0.000157 s⁻¹
kon [17]: 505000 M⁻¹ s⁻¹
B11: 2382D05 (designed binder)
chain: MGVSDVPRDLEVVAATPTSLLISWDAPADGGYGYYRITYGETGGNSPVQEFTVPVSKGTATISGLKPGVDYTITVYAVEFDFPGAGYYHRPISINYRTEIDKPSQHHHHHH
notes: Anti-PCSK9 Adnectin, His6-tagged; Same entry as 2451B06

binding result (murine serum albumin): no binding
B15: SABA2.1 (designed binder)
chain: MGVSDVPRDLEVVAATPTSLLISWPKYDKTGHYYRITYGETGGNSPVQEFTVPTRQTTATISGLKPGVDYTITVYAVSKDDYYPHEHRPISINYRTEIDKPSQHHHHHH

Further lines, the binder ahead of its results:

B4: 2013E01 (designed binder)
chain: MGVSDVPRDLEVVAATPTSLLISWVPPSDDYGYYRITYGETGGNSPVQEFTVPIGKGTATISGLKPGVDYTITVYAVEFPWPHAGYYHRPISINYRTEIDKPSQHHHHHH
notes: unmodified (not PEGylated) Adnectin; also called ATI001081
DiI-LDL uptake in HepG2 cells, EC50 [2]: 160 nM
EC50 (nM), PCSK9-induced LDLR depletion from HepG2 cell surface [2]: 12.4 nM
PCSK9-induced LDLR depletion in HepG2 cells, EC50 [2]: 9 nM
percentage of PCSK9 inhibition at 75 nM [2]: 152%
Kd [5]: 0.29 nM
Kd [6]: 1.51 nM
LDLR Depletion (% inhibition at 75 nM) [3]: 166%
LDLR Depletion EC50 [3]: 10 nM
EC50 [4]: 1.6 nM
Kd (Cynomolgus PCSK9): 8 nM
EC50 [7]: 3.7 nM
EC50 [8]: 2.8 nM

B5: 1813E02 (designed binder)
chain: MGVSDVPRDLEVVAATPTSLLISWSPPANGYGYYRITYGETGGNSPVQEFTVPVGRGTATISGLKPGVDYTITVYAVEYTYKGSGYYHRPISINYRTEIDKPSQHHHHHH
Kd [1]: < 2 nM
LDLR Depletion EC50 [3]: 16 nM
EC50 [4]: 1.3 nM

B10: ATI001174 (designed binder)
chain: MGVSDVPRDLEVVAATPTSLLISWVPPSDDYGYYRITYGETGGNSPVQEFTVPIGKGTATISGLKPGVDYTITVYAVEFPWPHAGYYHRPISINYRTEIEKPCQ
modifications: PEGylated on the cysteine of the C-terminal EIEKPCQ tail
notes: PEGylated, non-His-tagged cysteine mutant of 2013E01; also called ATI-1174; ATI1174
Kd [19]: 0.223 nM
Ka [20]: 7.5e+08 M⁻¹
Kd [20]: 1.3 nM
Stoichiometry (N) [20]: 0.857
ΔH [20]: -125 kJ/mol
ΔS [20]: -55.8 cal/mol °C
Kd [17]: 7.4 nM
koff [17]: 0.000901 s⁻¹
kon [17]: 126000 M⁻¹ s⁻¹

B12: 2451B06 (designed binder)
chain: MGVSDVPRDLEVVAATPTSLLISWDAPADGGYGYYRITYGETGGNSPVQEFTVPVSKGTATISGLKPGVDYTITVYAVEFDFPGAGYYHRPISINYRTEIDKPSQHHHHHH
notes: Anti-PCSK9 Adnectin, His6-tagged; also called 2451B06 (equivalent to 2382D05)
EC50 [13]: 4.5 nM
EC50 (cynomolgus monkey PCSK9 [22]): 57.8 nM

B13: ATI001114 (designed binder)
chain: MGVSDVPRDLEVVAATPTSLLISWVPPSDDYGYYRITYGETGGNSPVQEFTVPIGKGTATISGLKPGVDYTITVYAVEFPWPHAGYYHRPISINYRTGSGCHHHHHH
modifications: 40 kDa two-branched PEG on the cysteine of the C-terminal tail (GSGC)
notes: also called ATI1114
EC50 [8]: 0.8 nM

B14: SABA4.1 (designed binder)
chain: MGVSDVPRDLEMVAATPTSLLISWEDDSYYSRYYRITYGETGGNSPVQEFTVPSDLYTATISGLKPGVDYTITVYAVTYDVTDLIMHEPISINYRTEIDKPSQHHHHHH
binding result (murine serum albumin): no binding
